Test results taken from patent US20150344535A1 (UNIVERSITY OF QUEENSLAND, published 2015).

Tests used:
p75^Δ-JUX [1] = molecular target: T1, p75^Δ-JUX (UniProt P07174 30-425); experiment: flow cytometry, 26 nM NGF-FITC 60 min on ice, transfected HEK293 cells
T1 construct: whole, on cells; In HEK293 lysate in the co-immunoprecipitation, on HEK293 cells in the NGF-FITC assays; also called p75^NTR with an intracellular juxtamembrane deletion
T1 sequence (looked up): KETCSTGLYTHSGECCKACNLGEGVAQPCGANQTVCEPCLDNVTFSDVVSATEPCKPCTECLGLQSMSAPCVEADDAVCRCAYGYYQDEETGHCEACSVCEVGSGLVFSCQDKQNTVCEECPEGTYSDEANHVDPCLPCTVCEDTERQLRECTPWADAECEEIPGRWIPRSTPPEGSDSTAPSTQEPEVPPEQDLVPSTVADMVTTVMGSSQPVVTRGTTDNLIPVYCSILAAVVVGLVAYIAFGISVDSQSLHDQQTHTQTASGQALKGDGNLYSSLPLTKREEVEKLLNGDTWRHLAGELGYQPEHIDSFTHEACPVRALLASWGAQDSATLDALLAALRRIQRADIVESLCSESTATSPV
Method: (§1) To investigate NGF binding, PC12 or transfected HEK293 cells were serum starved for 4 hours, harvested, washed with Dulbecco's Modified Eagle Medium (DMEM), and counted. When used, c29 or scrambled peptide were added to cultures for the third hour of the serum starvation procedure.

[2] = molecular target: T2, p75^FL on transfected HEK293 cells (UniProt P07174 30-425); experiment: as above
T2 construct: whole, on cells; also called p75^NTR
T2 sequence (looked up): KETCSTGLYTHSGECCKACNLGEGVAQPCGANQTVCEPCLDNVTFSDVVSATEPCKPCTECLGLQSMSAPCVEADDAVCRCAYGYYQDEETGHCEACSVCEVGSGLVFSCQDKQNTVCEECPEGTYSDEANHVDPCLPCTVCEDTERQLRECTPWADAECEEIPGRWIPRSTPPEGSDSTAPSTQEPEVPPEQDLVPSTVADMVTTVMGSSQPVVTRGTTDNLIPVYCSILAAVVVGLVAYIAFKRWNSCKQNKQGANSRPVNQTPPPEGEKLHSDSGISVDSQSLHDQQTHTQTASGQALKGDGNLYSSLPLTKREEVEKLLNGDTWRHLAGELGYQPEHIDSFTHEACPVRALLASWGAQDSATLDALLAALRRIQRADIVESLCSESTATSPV
Method: as §1

TrkAK538A [3] = molecular target: T3, TrkAK538A; experiment: as above
T3 construct: whole, on cells; On transfected HEK293 cells in flow cytometry; in HEK293 lysates in the co-immunoprecipitations; also called TrkK538A
Method: as §1

TrkAK538A [4] = molecular target: T3, TrkAK538A; experiment: real-time flow cytometry, Hill-Slope association curve, TrkAK538A-expressing HEK293 cells pre-treated with c29
[5] = molecular target: T4, TrkAK538A and p75^FL co-expressed on HEK293 cells (UniProt P07174 30-425); experiment: flow cytometry competition against 26 nM NGF-FITC, co-transfected HEK293 cells
T4 construct: whole, on cells; Two receptors on the same cells; also called TrkAK538A + p75^FL
Method: as §1

[6] = molecular target: T5, TrkAK538A and p75^Δ-JUX co-expressed on HEK293 cells (UniProt P07174 30-425); experiment: as above
T5 construct: whole, on cells; Two receptors on the same cells; also called TrkAK538A + p75^ΔJUX
Method: as §1

p75^Δ-JUX [7] = molecular target: T1, p75^Δ-JUX; experiment: flow cytometry competition against 26 nM NGF-FITC, transfected HEK293 cells
Method: as §1

[8] = molecular target: T2, p75^FL on transfected HEK293 cells; experiment: as above
Method: as §1

TrkAK538A [9] = molecular target: T3, TrkAK538A; experiment: as above
Method: as §1

B1: NGF-FITC (ligand, mouse, UniProt P01139 122-239, looked up)
chain: SSTHPVFHMGEFSVCDSVSVWVGDKTTATDIKGKEVTVLAEVNINNSVFRQYFFETKCRASNPVESGCRGIDSKHWNSYCTTTHTFVKALTTDEKQAAWRFIRIDTACVCVLSRKATR
modifications: conjugated to FITC
notes: also called fluorescently labelled NGF; FITC-NGF
% of cells with fluorescence intensity above background (p75^Δ-JUX [1]): 80%
% of cells with fluorescence intensity above background [2]: 80%
% of cells with fluorescence intensity above background (TrkAK538A [3]): 80%
fold faster association rate against untreated TrkAK538A-expressing cells (TrkAK538A [4]): ~3 fold

B2: unlabelled NGF (ligand, mouse, UniProt P01139 122-239, looked up)
chain: B1 chain
notes: also called unlabeled NGF
excess of unlabelled NGF required for NGF-FITC binding to fall to background fluorescence [5]: 1000 fold
excess of unlabelled NGF required for NGF-FITC binding to fall to background fluorescence [6]: 1000 fold
excess of unlabelled NGF required for NGF-FITC binding to fall to background fluorescence (p75^Δ-JUX [7]): 1000 fold
excess of unlabelled NGF required for NGF-FITC binding to fall to background fluorescence [8]: 1000 fold
excess of unlabelled NGF required for NGF-FITC binding to fall to background fluorescence (TrkAK538A [9]): 1000 fold
